{
  "source": "paper PMC6053351",
  "about": "(2017)",
  "assay_in_all_cases": "ITC",
  "key": {"[1]": {"target": "RBBP4, full-length, wild type (UniProt Q09028 1-425)", "sequence (Q09028 whole entry)": "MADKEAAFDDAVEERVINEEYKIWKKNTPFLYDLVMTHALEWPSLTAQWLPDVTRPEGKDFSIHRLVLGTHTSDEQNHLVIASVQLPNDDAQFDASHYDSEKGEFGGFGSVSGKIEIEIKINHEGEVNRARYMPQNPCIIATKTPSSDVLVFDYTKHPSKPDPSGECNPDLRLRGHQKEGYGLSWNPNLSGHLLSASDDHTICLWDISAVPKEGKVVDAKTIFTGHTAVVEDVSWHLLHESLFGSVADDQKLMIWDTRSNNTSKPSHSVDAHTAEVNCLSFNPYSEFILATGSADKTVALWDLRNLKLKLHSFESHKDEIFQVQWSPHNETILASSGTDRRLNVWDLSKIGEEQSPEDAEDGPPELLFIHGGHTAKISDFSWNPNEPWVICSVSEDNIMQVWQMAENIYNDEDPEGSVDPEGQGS"}, "RBBP4 Glu231Ala": {"target": "RBBP4 Glu231Ala (UniProt Q09028 1-425, Glu231Ala)", "sequence (Q09028 whole entry E231A)": "as the sequence (Q09028 whole entry) above, with E231A counted along it"}, "[2]": {"target": "RBBP4 Glu126Ala/Asn128Ala/Glu179Ala (UniProt Q09028 1-425, Glu126Ala | Asn128Ala | Glu179Ala)", "sequence (Q09028 whole entry E126A/N128A/E179A)": "as the sequence (Q09028 whole entry) above, with E126A, N128A, E179A counted along it"}},
  "data": [
    {"binder": "KARALKNKRRRS", "note": "[AEBP2_(379–390) peptide with mutations Arg380Ala/Lys382Ala]", "values": [
      {"measurement": "Kd", "setting": "[1]", "result": 178, "unit": "µM"}
    ]},
    {"binder": "KRRKLKNKRRRS", "note": "[AEBP2_(379–390) peptide (RRK-rich motif, residues Lys379–Ser390)]", "values": [
      {"measurement": "Kd", "setting": "RBBP4 Glu231Ala", "result": 38.5, "unit": "µM"},
      {"measurement": "Kd", "setting": "[2]", "result": 56.8, "unit": "µM"}
    ]}
  ]
}
